This note sets out measurements from the supplement of paper PMC5998384.

For data set [1], the system named is HeLa Kyoto. As to the kind of experiment: solubility change mitosis vs G1/S (difference of NP-40 vs SDS log2 ratios) (log2 ratio difference); higher = more soluble in mitosis.
Data set [2] concerns HeLa Kyoto. As to the kind of experiment: solubility in G1/S (NP-40 vs SDS abundance) (log2 ratio); higher = more soluble. To be noted: cell cycle stage: G1/S.
Data set [3] concerns HeLa Kyoto. As to the kind of experiment: melting temperature (median over replicates), in situ; higher = more thermally stable.
Data set [4] has as its system HeLa Kyoto. As to the kind of experiment: thermal stability score vs G1/S (z-score of summed log2 fold changes over temperatures); higher = more thermally stable than in G1/S.
Where [5] appears, read: cell cycle stage: early G1 (4.5 h after nocodazole release).
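For melting temperature (median over replicates), in situ in this document: HeLa Kyoto cells synchronized by double thymidine or nocodazole block, proteins quantified by TMT10plex mass spectrometry, three independent biological replicates.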
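For solubility change mitosis vs G1/S (difference of NP-40 vs SDS log2 ratios) in this document: synchronized HeLa Kyoto cells (double thymidine block for G1/S, nocodazole release for mitosis), protein amounts in NP-40 versus SDS lysates quantified by mass spectrometry, three biological replicates.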
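For solubility in G1/S (NP-40 vs SDS abundance) in this document: HeLa Kyoto cells arrested at G1/S by double thymidine block, proteins quantified by TMT10plex mass spectrometry in mild NP-40 versus SDS extracts, three biological replicates.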
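For thermal stability score vs G1/S (z-score of summed log2 fold changes over temperatures) in this document: synchronized HeLa Kyoto cells, proteins quantified by TMT10plex mass spectrometry, three biological replicates, mitosis taken 0.5 h after nocodazole release, G1/S directly after double thymidine block.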

Regarding CAD, in the data set with HeLa Kyoto [1], the “solubility change mitosis (log2)” value is -0.146. Further, in the data set on HeLa Kyoto [2], the “solubility in G1/S (log2)” value was -0.137. Further, the melting temperature in the data set with HeLa Kyoto [3] (cell cycle stage: G1/S) turned out to be 50.6 °C; with HeLa Kyoto [3] (cell cycle stage: mitosis) it was 50 °C. Besides, the figures for the thermal stability score with HeLa Kyoto [4] (setting [5]) and with HeLa Kyoto [4] (cell cycle stage: mitosis) were -0.499 and 0.0146, respectively.

With “MSSTQFNKGPSYGLSAEVKNRLLSKYDPQKEAELRTWIEGLTGLSIGPDFQKGLKDGTILCTLMNKLQPGSVPKINRSMQNWHQLENLSNFIKAMVSYGMNPVDLFEANDLFESGNMTQVQVSLLALAGKAKTKGLQSGVDIGVKYSEKQERNFDDATMKAGQCVIGLQMGTNKCASQSGMTAYGTRRHLYDPKNHILPPMDHSTISLQMGTNKCASQVGMTAPGTRRHIYDTKLGTDKCDNSSMSLQMGYTQGANQSGQVFGLGRQIYDPKYCPQGTVADGAPSGTGDCPDPGEVPEYPPYYQEEAGY [CNN2]”, the “solubility change mitosis (log2)” value in the data set on HeLa Kyoto [1] was -0.0021. Moreover, in the data set on HeLa Kyoto [2], the “solubility in G1/S (log2)” value was 0.456. In addition, the melting temperature is 48.8 °C with HeLa Kyoto [3] (cell cycle stage: G1/S) and 50.3 °C in the data set on HeLa Kyoto [3] (cell cycle stage: mitosis). The thermal stability score in the data set with HeLa Kyoto [4] (setting [5]) came out at 1.28; with HeLa Kyoto [4] (cell cycle stage: mitosis), 1.97.

Take “MHPPKTPSGALHRKRKMAAWPFSRLWKVSDPILFQMTLIAALLPAVLGNCGPPPTLSFAAPMDITLTETRFKTGTTLKYTCLPGYVRSHSTQTLTCNSDGEWVYNTFCIYKRCRHPGELRNGQVEIKTDLSFGSQIEFSCSEGFFLIGSTTSRCEVQDRGVGWSHPLPQCEIVKCKPPPDIRNGRHSGEENFYAYGFSVTYSCDPRFSLLGHASISCTVENETIGVWRPSPPTCEKITCRKPDVSHGEMVSGFGPIYNYKDTIVFKCQKGFVLRGSSVIHCDADSKWNPSPPACEPNSCINLPDIPHASWETYPRPTKEDVYVVGTVLRYRCHPGYKPTTDEPTTVICQKNLRWTPYQGCEALCCPEPKLNNGEITQHRKSRPANHCVYFYGDEISFSCHETSRFSAICQGDGTWSPRTPSCGDICNFPPKIAHGHYKQSSSYSFFKEEIIYECDKGYILVGQAKLSCSYSHWSAPAPQCKALCRKPELVNGRLSVDKDQYVEPENVTIQCDSGYGVVGPQSITCSGNRTWYPEVPKCEWETPEGCEQVLTGKRLMQCLPNPEDVKMALEVYKLSLEIEQLELQRDSARQSTLDKEL [C4BPA]”: the “solubility change mitosis (log2)” value with HeLa Kyoto [1] is -0.146. In addition, the “solubility in G1/S (log2)” value in the data set on HeLa Kyoto [2] was -0.459. In addition, the melting temperature was determined as 54.4 °C with HeLa Kyoto [3] (cell cycle stage: G1/S) and 56.1 °C with HeLa Kyoto [3] (cell cycle stage: mitosis). For the same substance, the thermal stability score in the data set with HeLa Kyoto [4] (setting [5]) worked out at 5.62; with HeLa Kyoto [4] (cell cycle stage: mitosis), 9.17.

On to “MSLQSAQYLRQAEVLKADMTDSKLGPAEVWTSRQALQDLYQKMLVTDLEYALDKKVEQDLWNHAFKNQITTLQGQAKNRANPNRSEVQANLSLFLEAASGFYTQLLQELCTVFNVDLPCRVKSSQLGIISNKQTHTSAIVKPQSSSCSYICQHCLVHLGDIARYRNQTSQAESYYRHAAQLVPSNGQPYNQLAILASSKGDHLTTIFYYCRSIAVKFPFPAASTNLQKALSKALESRDEVKTKWGVSDFIKAFIKFHGHVYLSKSLEKLSPLREKLEEQFKRLLFQKAFNSQQLVHVTVINLFQLHHLRDFSNETEQHTYSQDEQLCWTQLLALFMSFLGILCKCPLQNESQEESYNAYPLPAVKVSMDWLRLRPRVFQEAVVDERQYIWPWLISLLNSFHPHEEDLSSISATPLPEEFELQGFLALRPSFRNLDFSKGHQGITGDKEGQQRRIRQQRLISIGKWIADNQPRLIQCENEVGKLLFITEIPELILEDPSEAKENLILQETSVIESLAADGSPGLKSVLSTSRNLSNNCDTGEKPVVTFKENIKTREVNRDQGRSFPPKEVRRDYSKGITVTKNDGKKDNNKRKTETKKCTLEKLQETGKQNVAVQVKSQTELRKTPVSEARKTPVTQTPTQASNSQFIPIHHPGAFPPLPSRPGFPPPTYVIPPPVAFSMGSGYTFPAGVSVPGTFLQPTAHSPAGNQVQAGKQSHIPYSQQRPSGPGPMNQGPQQSQPPSQQPLTSLPAQPTAQSTSQLQVQALTQQQQSPTKAVPALGKSPPHHSGFQQYQQADASKQLWNPPQVQGPLGKIMPVKQPYYLQTQDPIKLFEPSLQPPVMQQQPLEKKMKPFPMEPYNHNPSEVKVPEFYWDSSYSMADNRSVMAQQANIDRRGKRSPGVFRPEQDPVPRMPFEKSLLEKPSELMSHSSSFLSLTGFSLNQERYPNNSMFNEVYGKNLTSSSKAELSPSMAPQETSLYSLFEGTPWSPSLPASSDHSTPASQSPHSSNPSSLPSSPPTHNHNSVPFSNFGPIGTPDNRDRRTADRWKTDKPAMGGFGIDYLSATSSSESSWHQASTPSGTWTGHGPSMEDSSAVLMESLKSIWSSSMMHPGPSALEQLLMQQKQKQQRGQGTMNPPH [SMG7]”, for which the “solubility change mitosis (log2)” value with HeLa Kyoto [1] is -0.127. In addition, in the data set on HeLa Kyoto [2], the “solubility in G1/S (log2)” value stood at 0.0703. Also, the values for the melting temperature in the data set on HeLa Kyoto [3] (cell cycle stage: G1/S) and with HeLa Kyoto [3] (cell cycle stage: mitosis) were 50.4 °C and 49.3 °C, respectively. Further, the thermal stability score in the data set on HeLa Kyoto [4] (setting [5]) is 0.868; in the data set on HeLa Kyoto [4] (cell cycle stage: mitosis), 1.4.

On to “MLERPPALAMPMPTEGTPPPLSGTPIPVPAYFRHAEPGFSLKRPRGLSRSLPPPPPAKGSIPISRLFPPRTPGWHQLQPRRVSFRGEASETLQSPGYDPSRPESFFQQSFQRLSRLGHGSYGEVFKVRSKEDGRLYAVKRSMSPFRGPKDRARKLAEVGSHEKVGQHPCCVRLEQAWEEGGILYLQTELCGPSLQQHCEAWGASLPEAQVWGYLRDTLLALAHLHSQGLVHLDVKPANIFLGPRGRCKLGDFGLLVELGTAGAGEVQEGDPRYMAPELLQGSYGTAADVFSLGLTILEVACNMELPHGGEGWQQLRQGYLPPEFTAGLSSELRSVLVMMLEPDPKLRATAEALLALPVLRQPRAWGVLWCMAAEALSRGWALWQALLALLCWLWHGLAHPASWLQPLGPPATPPGSPPCSLLLDSSLSSNWDDDSLGPSLSPEAVLARTVGSTSTPRSRCTPRDALDLSDINSEPPRGSFPSFEPRNLLSLFEDTLDPT [PKMYT1]”, for which the “solubility change mitosis (log2)” value with HeLa Kyoto [1] is -0.332. Besides, the “solubility in G1/S (log2)” value with HeLa Kyoto [2] was found to be 0.406. The melting temperature in the data set with HeLa Kyoto [3] (cell cycle stage: G1/S) was found to be 48.7 °C; in the data set on HeLa Kyoto [3] (cell cycle stage: mitosis) it was 49 °C. For the same substance, the values for the thermal stability score in the data set on HeLa Kyoto [4] (setting [5]) and in the data set on HeLa Kyoto [4] (cell cycle stage: mitosis) were 0.535 and 0.495, respectively.
